Results on 22 sequences are retold here after a protein production outcome set (Wang et al. 2014).

The nature of this data set: label from the status in PepcDB records.
On to “MSVLSALQYYFFYPSFFLTVIFPGLIFTLIFLLVTIWFERKAAAIVQLRYGPYYASKRLGGILQLFADAIKFVFSEIIIPNGVNQTLYAISPVLVLIFAFLPMALIPISTIPTQGSILSVYHGIFYDTQIHQGILVPYFIEYNLIGIIALESLYPILVIFLAWNTNNRFAIVGSIREAYLSVSYDVLIIISTLALGLEYHTLDVAKIVTSGIPGFIANPIAAFVFLVAMLIGSSRFPFEIVEAETELVIGPYTEYSGFLFVLTMAGSYVANLVYAILFVDLFLGGWLPFTGFVGAIFTVFKAAIVVFFAVFLRAVYGRYRIDQALRGSWKYFFPLALASLLLGVVVGYLWIR”, for which the protein production entry is recorded as “failed”.
For the sequence “MSVNDTGHSDNYTWNRQVYHRLKLALSLGLRRQLFLAVCDDLHLRNQVAARLHSTLAYPVGQVLYQSLDGKEASTSAYPRLVTLRLNLNEPNPIAQINQWLANYPPPIVGASKDNPGKPLPIPTFQLVGVEQLTKQTVASQRLFLHYLRLSEQFFAAQESSRFLESSVLLWVSRPWLSAIQQSAPQFWRWRTGVFVFAGEPTPTTQNSGHPERFSNSRSVKLGNLEQSALDELSMEGEVRSPSTTEFNFGDEVSLPTEILGNHPQPKEETPPLISELPPTQQKPQELTVRSSAANSSSLLSLSHVSQELTDLVLATINTKISSEAEDDWQPQELLLEIEELHSQSASGEILAAAYHQLGNLYRLRIEQGQSTLEDLMVAIIAYQESISYDENSPQLPDILNDLGTLYWMLYRTPPNLEEGQTYIEQGIEFYELALKIISPETHPDTYARVHNNLGTAYGDLARFASPAENWQQAVVSYSKALLHRTVESDPLKYAACQNNLGTAYWHLAQYNQPVVHLKKAIASYKQSLAHYNPQDEPLKYGMIQNNVGTAYWNLAQYEQPGENLQLAIDVYSEALKYRTAAMVPNACAATQNNLGTAYWHLANLPQTTKDVRQKLLILCINAYEEAIALAHSLSNVSLSFDLFATHNNLGLAHYQLVTDNYFSGDKGRRSHHLEAALDNHLQALNGLSKQPEAYQATFAYVVKTVRAFHNELGIQGQNLALSKVPGHLLPEILPKL”, the protein production entry is “failed”.
As to “MSVNGAFSPCVVIPCYNHGAMMASVLVRLAPLALPVFIVDDGSDAATQHVLNLLAAENDGVTLIRLANNSGKGAAVMRGIEAVAQAGFSHALQVDADGQHQIEDAPLLLDEAKTHPDCLISGRPRYDDSVPKSRLYGRYVTHVWVWIETLSLSIKDSMCGFRVYPVAATVSLLSRKSLGRRMDFDTEIMVRLYWAGTPSRFIETAVTYPENGLSHFDALHDNLRISWMHTRLFFGMLPRIPVLLMRQRQQHWAGVSERKGLLGMRFMLAVYQRLGRGVFTLFLWPVIAFYWLTGRTARKASQSWLRQIGEYAHQQDILLPKPLNSYHHFLRFGQAMLDKIASWRGDLHWGRDIDFAPGAQEAIEHGRQKGQLILASHLGDIEVCRALAPQVSGLVINALVFTENSQRFKQVLEEIAPQAGVNLIPVSNIGPDTAIMLQQKLDAGEWVAIVGDRTAVHRQRGGVRRVVWSPFLGKEAPFPQGPFVLAAALRCPVLLMFVIREQKKLRVYCEPFADSITLPRPTRQQALQQVVDRYAERLAHYALKSPLDWFNFFDFWSLPDDDGRTAGKKESLEHHHHHH”, the protein production result was “failed”.
The result for “MSVNPFQTMRARYFLIVFALLTVVARASNELIENTFHMQNSTFINILIFYILPITWIYFAYKKHRVAFSLFINRNETFNLVQVLYITIMLCVFSYGYLILYMYSFAWITPTFIMNALREPIMDSTGGYVYQVIMVVFIAPIIGEFVFRGFLLQRFAAKWGTSIAIIVVAILFALLHVDFLGAIVFSVVLSIVYIRTNSLLMPIAIHMLNNAFVIGASFLINKEEIMSFADFSNYTTFFPGLIIFITGLNLVLIFLFVNRKYWSKEMPAIYVEQEKSFSDVVGSK” reads “failed”; that for “MSVQLKCDAVNCVYNRSHLCSAEEIEVQGGETTGGDATFCGTFSSKSLGNFVSSLGNMNYSGSLKQAVSAEPIMDPKVHCNAVNCTYNDQRYCHADQVEIRNEVSHTAEELEHHHHHH”, “not failed”.
The result for “MSVWLLQMKTNAIITDITKSIVKMDRILVYRHTNPDPDAIGAQFGLVALLKAAYPEKLVVAMAPVPGHLAWIDTTDEQLVTPQATDLVIAVDCANHERLAGELPTGAFVIKIDHHPNHDPYGQLNWVDETYSSCSEMIYELAQAGCFTVTAAVATKLYAGIIGDTVRFSTPETSTRTLKIASALAATDIDIATISHHEMDLT” reads “failed”; that for “MSYEKEFLKDFEDWVKTQIQVNQLAMATSQEVAQEDGDERAKDAFIRYESKLDAYEFLLGKFDNYKNGKAFHDIPDELFGARHY”, “not failed”; that for “MSYFDQDDKEVLAPNSDVIAATTTTATTATHGIEVATEFKPVEHPVEPLDNDLPIQCPLPEPSILNDGRIWKERVSASMRRKGDLQIVKDEAASESDGSAPKPPRPPQPNRSILPSLSAPEHNLLNLLEECNAMPPVTSKNG”, “failed”.
The result for “MSYIPPHKRHSKDPTKPTPVPDSLVTKFKKNLDFKSSTSSVKRNKIIYSGDSISKWFLVGSNGIEDDVPSYVKFVPLSSDSVECRKGEKPSILMNNNVQNVNMNIGERKDERTQWLLVAEKVMEDLVLAYERVKTEMKEHHHVSRLVARFGKIFFYGSQAGPVAECSLKNLNKMFSTDLPMSYLQHIKSNVVPSHGFSIDKEKETYTVKVSHYSRPNATINCKCTRKEDGRLSMYKASLEFYVDLNPVRHLVVDVSCIDKNLDMRLTLTAKREITYLSDKEIGDIKALLESATVDPNVKGGLRWPFGKALSEDGYKEFEVCHVRATIYKNKTLRLRVRETDRFNETTGTGETKREVSLTLKDIDTKIQEQNTERGCVLEMLRDALGTIWDFLHCDAYLT” reads “not failed”; that for “MSYKVEAVPDSYAALGEGPHWDVDRQSLYYVDLESAGINRYDFKQNKVYRAKIEGEIFASFILPVENKPQEFAVGCGLRTVIVQWDGVSAVAKVTRTLFEVQPDLKENRLNDAKTDPNGRFYGGTMADSGDIFTQWKGELYSWQAGGQPNAIRSKVGISNGLAWDVKAKKFYFIDTNNHEVLAYDYNQSTGAVSNPKVIFDLRKIRPEGPLFPDGMTVDTDGNIYVATFNGGTVFKVNPSTGKILLEIKIPTTQITSVAFGGPNLDILYVTTANKFDQPKPAGTTFQVTGLNAKGYAGVNLKI”, “failed”.
As for “MSYLDTATDLPNQTLFLEYLNIALSNARRHHAQVGVLLCQINNWSDLKRKRGDAVANAFLQEAGQKLKSNLRNGDIVSRWDKDEFIFLVSKVQDTSSLLGIAQRLMKPVLAPVTAGGRPFQPEITYGVALYPVDGEQVNDLIGHIRENLQQLLPQPTLEHHHHHH”, the protein production entry is listed as “failed”.
The result for “MSYLGGYGLIYLVTIVGYFILASFLGSFQLSSDLFNFEFYSSLSGISALMVWAFWLFLIYLNIILVVRRLHDLNKSGWMGLLLFIPVVQFFFMLYLLLASGTAGTNQYGPVRPSTFIEKLMAWLILIAILISLISTVGFFYYFSGTDTIQTPTQILQKGTEYF” reads “failed”; that for “MSYRTISAEEAVMAIKSGDRVFLHTAAATPLRLIEAMVSRASHLRDVEIVSLHTEGDAPYVRPEFQESFRLNAFFVGRNVRSAVQCGYADAIPIFLSDVPAMFYDGVMPLDVALVHVSPPDRHGYCSLGVSVDATRAAVHTARHVIAQVNPNMPRTHGEGLLHVSKIHSLVEVDDPLPETPRHELTDVERQIGQHIASIVEDGATLQMGIGAIPDATLAALTNHKDLGIHSEMFSDGVVDLVEKGVVNGRCKKTHNEIIVASFLVGTRKLYDFVDDNPLVEMFGSDYVNDTKEIRKNPKVTAINSAIEIDMTGQVCADSIGTRHFSGVGGQMDFIRGAALSPGGKPIIALPATTRKGESRIVTQLKPGAGVVTTRAHVQYVVTEYGIVNLHGKNLRQRAEALATIAHPDFREEILRQAHELYGRKSNCLID”, “failed”; that for “MSYSTFALCHWARDRQRGRKTVADMVHRMTQATARVIGLEDRGELAVGKRADINVIDLAQLALRPPQVCHDLPAGGRRLIQRATGYSLTMLAGEIVLRDDEPLEHHHHHH”, “not failed”.
Regarding “MSYTPMSDLGQQGLFDITRTLLQQPDLASLCEALSQLVKRSALADNAAIVLWQAQTQRASYYASREKDTPIKYEDETVLAHGPVRSILSRPDTLHCSYEEFCETWPQLAAGGLYPKFGHYCLMPLAAGGHIFGGCEFIRYDER”, the protein production result is reported as “failed”.
Consider “MTAAPLVSVLLPVYNAGPYLAAALGSILRQDYGRLEVIAIDDGSSDNSLEILERYRQADSRVSIISRENRGLVATLNEGLAAAQGELVARMDADDVAYPWRLSRQVALFEQRPELGFCGAGVDMLIRGRIARGRPDPVFRFGRMPILAMFFTIFMHPTVVYNRKVIEDADLHYDPTYRHAEDFDLFGRLAARYPAAMMPENLLVYRVHQASVTSRHGKEMRRTHLRIVAENLEREGLAEATRDLRDIGEAVSFDTVTRAADFIVALEERIRSLPAETRPSFEAGALNLFYFLYQLVADERQPPLTHELLRRTAKWNAIRRREKYALRPGAWAPWLSLASLAAGKQADAVEYFFKSAPAAAVLASHQVG”, for which the protein production entry is given as “failed”.
The result for “MTAASETFDVVVVGAGPAGGQCARRLAQAGRTVLLVDQLKTWTDHDFSSGGTPLETLDRFQLPDRVIGSRWSQLRVVTTREDHTWKSARSLGCVLDFAALRQFLAEETTTHGGSVRLGWQYRDRQQLTDGRWQIRFRDRLTSSDRWVTSRAVVDATGSARKVIYTAAEPRPDYLRGVGIEYLIEVPETVYQRFADALHFYLGHHWLPKGYSWIFPMQSGRLKVGACWFHGDHRFLKPDQPLRHYIDLLLTEQVQCPDYRLVDVHGAAIDYSGDRCDRHVQASILGIGDAVSAINFLGGEGIRHGLESADRAAQVLDAWLQGTVPDLSSYEQQIRRRFDRLWTLSLRLGMKKYLQDSDAKIDRIVRWCCALSTDDLMAILFDYRFQRLGRRLGRFFWLSVMTRLRLRWQRWRRPSHVA” reads “failed”; that for “MTADLFDGLDDAPRRQDIAPGAALLSGFARANERELLAAIDAVVARAPFRHMMTPGGHTMSVAMTSCGSVGWVTDRRGYRYSPNDPDSATPWPKMPAVLRDLAQRAAADVGFAGFDPDACLINRYVPGAKMALHQDKDEADFSAPIVSVSLGLPAIFQFGGMARSDKPRRYELRHGDVLVWGGPSRLVYHGVLTLKDGEHPLLGRQRINLTFRKAL”, “failed”.
The result for “MTAEDGAAYIAFLADPQPSAQWVGRRGTPRDRHDWRPFEGPLSPASIRHARKILSTLYGCLIEQGHARANPFEVLSLPTGGDAPRIQVARSFTEPQWRFLLRHVSSLPADDPRAARLTFMLHLAHASGLRISEQAVATVGHLTWSGHWTLAVPGPKPRQIPLPEAVIDALRGHLAARGLGRGFESLPAATPLIGRVKTGDEGDALSVAQIGAIWKRYFAQAATLAGGEDDAAQLAQASAHWMRHTAGAHAVARGVALEVVQQQLGHASLDTTSMYVLAA” reads “failed”.
As for “MTAFAAASPRAAVRTGFDGLAISVATRAMMKNLDQNFDAILITGPTASGKSALALRLARERNGVVINADSMQVYDTLRVLTARPSDHEMEGVPHRLYGHVPAGSAYSTGEWLRDISGLLSDLRGEGRFPVIVGGTGLYFKALTGGLSDMPAIPDDLREGLRARLIEEGAAKLHAELVSRDPSMAQMLQPGDGQRIVRALEVLEATGKSIRDFQRASGPMIIDPERAQKFIVLPERPVLHDRINRRFEAMMDSGAVEEVQALLALNLAPDATAMKAIGVAQIADMLTGRMGAAEVIEKSAAATRQYAKRQMTWFRNQMGDDWTRIQPLEHHHHHH”, the protein production result is “failed”.
Then “MTAIAPVITIDGPSGAGKGTLCKAMAEALQWHLLDSGAIYRVLALAALHHHVDVASEDALVPLASHLDVRFVSTNGNLEVILEGEDVSGEIRTQEVANAASQVAAFPRVREALLRRQRAFRELPGLIADGRDMGTVVFPDAPVKIFLDASSEERAHRRMLQLQEKGFSVNFERLLAEIKERDDRDRNRAVAPLVPAADALVLDSTTLSIEQVIEKALQYARQKLALA”, with “failed”; and “MTAIPLTFYLGLAALLFSIGLYGVMTHKSGIRMIMCIELMLNSANLNLVAFSSYTDTLNGQVFAIFSIALAAAEAAVGFAIFMAIYRMHDKINLDELNILRW”, with “failed”.
